# Measured values as given in the domain aggregation screens of Martell et al. (2025).
# Assay: soluble fraction after stress (log2 fold change); higher = more stays soluble; pooled small domains, quantitative proteomics
# Details: stress: pH 4
# Method in brief: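 Following acid stress at pH 4, the amount of each small protein domain still soluble was measured in pooled custom libraries by high-throughput quantitative proteomics. Its fold change, on a log2 scale, is higher when more of the domain stayed soluble. This fold change is taken as a measure of aggregation propensity.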
row,Sequence,soluble fraction (log2)
1,HMNASITVPDVRNLTVKQASEQLLASGFTPIPYAATKDGVGNDIVYAQDPPPSVLARSGDQITITYNPA,0.198
2,HMNASTVTLENFEGAKYDDVYGKYDYQFSVTYEQTDKYESGVIISQKPEAGTKIIKGSQVSLVVAT,0.101
3,HMNASVIADLFRQTGASVMIHGHTHRPDIHALEANGDAAFRAVLGAWHTEGSMIRVTQDDVTLIAFP,0.173
4,HMNATLEQLTQREREIAVLMAEGLTNAQIGSRLNVSMASVKAHLSHIFTKLGVDNRVSAAMMVL,-0.0121
5,HMNATPDMERYWASSAAEGRALEPLYAVSRGDGGEPLWWSPSRAQAERMAREEGGPLTVDRIDPP,-0.0463
6,HMNAVYAEERRAYILAALEKRGTVHSYELAEQMGVSRETIRRDIMELSNRGLLVKTHGGAIST,-0.352
7,HMNAYEVLIPNIYIGQRVDQTLASLFPQFSRSRLQNWLARGNLLIDGEIIKPKTKVLGGEQIIILDT,-1.05
8,HMNDAEEKAEAIEGVKNFMANMEKTDIDFKSKESVLLEQVEEIRKNYPVAQWPVIVKQLYNNIGRL,-0.257
9,HMNDIDKFVAALVDQDTMAGTNRAFDENDIQTMKNMSSIEDVKQYAVANGLSSGKVNNALISAGL,-0.195
10,HMNDIQIILQEAVARLPKKQQLVFNMKYFDHLKYQEISEILGTSVGGLKASYFQAVKKIENYIINKH,0.0158
11,HMNDRLFQILYLLLEKGTMTAPELSRALEVSVRTIYRDIDALSLAGVPVYATQGKNGGVSLLPNY,-0.758
12,HMNDTLQEYFEALERLKSNNPINVPKNTKINNDSVALEAGRKRGSIKKSREIFAELIEAINNAS,-0.186
13,HMNDVEAIDDALKDLHKVSPDLAALVEMKFFGGMTEPEISEILGVSERTVRREWEKARAALLVLLE,-1.18
14,HMNDVHELPYSSFIEMVERGHVISVTVKHINIEFESTKNENYRTIAPQAMTPPYLELLLKNKDSVKVTFLP,-0.516
15,HMNDVLVGAIPESASGSRLDKVMPSVFPPYSRSQLQVWLKQGRILMGNGIPSPRLIVSGGEVLSLVVPELP,-0.244
16,HMNEDFSEIIAAVKKFAVDNLSLSTLSDEELEEQIKTITDNMIGNRYVSIKNRVDIAQQVFSSIR,-0.435
17,HMNEMEFAQRLRQFRKAKNLTQQELADRLGVSNKSVSRWESGSYPDVGTLVALARALGVTVDELLDPKA,0.149
18,HMNEMEWVAKLIDQLPERERMILQLREIEQYEFDQIASLMEIPEGTVRVYLSRIRKKIKKQFIEIQSH,-0.405
19,HMNENFPYRLKEMVVVQSRTWPGINKPGGVGQVMKINPEAGTVNVKYVLGGSEKNIELKYVTSNDLNSK,0.063

row,Sequence,soluble fraction (log2)
1,HMNENYNLSKREKEVLDLLVNGKSYKVIATELAISYETVHSHIKKIYHKLHVSSIGEAVSKTIKQKIL,-0.561
2,HMNEPITIALREAEEAANKILNEGVHSVELSPQNGYVRRLQHELIARYGLTSASRGSDPSRRVSVGAN,-0.273
3,HMNEQKVSSLLTPRQLAFIDEYLIDFNGAQAAIRAGYSHKTAGPQAARLLVNVNISRMIAERIEARNK,-1.22
4,HMNEQVAVVSGSQVNVRSGPGTTSAVVGQVSKGDNLPVLNQSGDWYQIKLPGGNAGWVAGWLVSLRPTT,0.237
5,HMNESPVLAVLTPTERKVASLVAEGLTNQAIAARMILAEGTVKNHVSTLLHKLQAPDRTALALTLYKAFQ,0.165
6,HMNETRVDQAADLLLALLEKEPKSAAEILDEFEQAGFSKSGLYRAKDALGVVSIRKEGRWVWSLPHSLD,-0.778
7,HMNEYIVSAEQEGMRLDVFLTEQMEGSRSYIQSLIKGGHVTVGDKVGKANLRLTPDTVIHVEIPEPE,-0.166
8,HMNEYLPEAVQKLLEVMEYDIPYTSNELMERLGLKAKEGFRRNYLHPAMEMKLIQMTIPDKPNSRNQRYLR,-0.248
9,HMNFHLEHHIAELLYRSIRGELSDFERQELNQWRSDSPMHETLFMRLQDDEYIDEELGVFIK,-1.89
10,HMNFKNMIDSLSGILFKKDPSAAIIDIGGVRLKVFITVGSYEQLPAKGEQVEILTYLHVKEDILNLYG,-0.819
11,HMNFMDGFQSFFQESGAMNRPMTADVVSYRLPDGTVQQGNSTMRGLMDQYLKSIGQSPTTGVP,-0.176
12,HMNFRESVLAVFENSKQKYLDFDEIAKRLGLTRGFDRQALASMLNELTRNDEIVFTKRNKYTLPEN,-0.774
13,HMNGAVAEQARKQLMAALKASEFIAEEKLDEWLDALALPEDKRTAIVDAVDELDYEEAISELEN,0.0531
14,HMNGDYFEYRYAVNGSRSTPPSLSKTSRNPSGWSTTVPTVGNLQYLWFTVAKINGETNSLIQNWSTPARQT,0.143
15,HMNGEAQTMYVTARTLNVRKGPGTSYAKAGTLSRGTAVQVVGFSGNWAKLSNGYYVSTSYLAKI,0.0208
16,HMNGKWKLRIIKELLHSNIRFGQILKNIPDISPKVLSQQLKEMEEDGIIERIVISEMPPNVEYVLTDMGE,-0.458
17,HMNGLNISYRMDGENVVETIVFPDATMIRTIAPNGVMTIKTIEDGSVSTSELKADYKLYKKIYESQY,-0.401
18,HMNGSVLVTGGSVWIRAGASKETDGLGIVHKGDVLKRSGSDASGWRGVVYEGQNAFISAKYSSI,0.424
19,HMNGTEAIRRYIDQFASKHATTPRMLKLNERKQLIQELKNNGLLEIKKAVETVAQHLGISRASAYLYVKE,≥ 0.43
